Measurements: US20230395193A1 (priority 2020, published 2023)

Test system: SARS-CoV-1, MERS-CoV and SARS-CoV-2 proteins in HEK293T cells
Set-up: species or system human

B1: M-Q68DH5 (protein, UniProt Q68DH5 1-695, looked up)
G-protein coupled …: MSGAALGLEIVFVFFLALFLLHRYGDFKKQHRLVIIGTLLAWYLCFLIVFILPLDVSTTIYNRCKHAAANSSPPENSNITGLYATANPVPSQHPCFKPWSYIPDGIMPIFWRVVYWTSQFLTWILLPFMQSYARSGGFSITGKIKTALIENAIYYGTYLLIFGAFLIYVAVNPHLHLEWNQLQTIGIAAANTWGLFLLVLLLGYGLVEIPRSYWNGAKRGYLLMKTYFKAAKLMTEKADAEENLEDAMEEVRKVNESIKYNHPLRKCVDTILKKCPTEYQEKMGRNMDDYEDFDEKHSIYPSEKSLVKLHKQVIYSVQRHRRTQVQWQILLEQAFYLEDVAKNETSATHQFVHTFQSPEPENRFIQYFYNPTFEWYWECLLRPWFYKILAVVLSIFSVIVVWSECTFFSTTPVLSLFAVFIQLAEKTYNYIYIEIACFLSIFFLSICVYSTVFRIRVFNYYYLASHHQTDAYSLLFSGMLFCRLTPPLCLNFLGLTHMDSSISHKNTQPTAYTSIMGSMKVLSFIADGFYIYYPMLVVILCIATYFSLGTRCLNLLGFQQFMGDDDMTSDLVNEGKELIRKEKRKRQRQEEGENRRREWKERYGHNREDSTRNRNIHTDPKESNFSDVNTNRSAFKYTRANNRTERDRIELLQDAEPLDFNAETFTDDPLESESGRYQPGGRYLSMSRSDIFNDV
modifications: interaction partner of SARS-CoV-2 M
Question: What does the source list for B1?
Answer: MIST_MERS: 0.9869; MIST_SARS1: 0.6855; MIST_SARS2: 0.2449; Saint_MERS: 0.95; Saint_SARS1: 0; Saint_SARS2: 0

B2: M-Q6AI08 (protein, UniProt Q6AI08 1-1181, looked up)
HEAT repeat-containing …: MAAVQVVGSWPSVQPREAPREAIPERGNGFRLLSARLCALRPDDSSSARTEIHLLFDQLISENYSEGSGVAPEDVSALLVQACRLVPLNQNHLVSKVSQLIHHLLNRLQVIVDEQHLDFLLAYTISAIHQCSSWTHREILQALAALVYCNGSKCQKYLPELLGNTGLLMKLSDLAQSDPEVRRAAVHCMANLCLSVPGQPYLEEPYQNVCFQAFLTILQSPKSSDMDDITFCMLLQNALKGIQSLLNGGRMKLTQTDELGALLAVLKKFMFHGLPGLNIEMPTVLYPTPLPQYDGRTPIKPQQSESSASRPTLNKKKKSKVKPKKIQQGEEEEKESSGEIEAAPVTGTGRVNLHEGNTWCPSSLGVQSLPLDGSGAAEKDGVSSSFSSSSWKRVSSSESDFSDAEGGMQSKMRSYQAKVRQGALVCFLSTIKSIEKKVLYGYWSAFIPDTPELGSPQSVSLMTLTLKDPSPKTRACALQVLSAILEGSKQFLSVAEDTSDHRRAFTPFSVMIACSIRELHRCLLLALVAESSSQTVTQIIKCLANLVSNAPYDRLKLSLLTKVWNQIKPYIRHKDVNVRVSSLTLLGAIVSTHAPLPEVQLLLQQPCSSGLGNSNSATPHLSPPDWWKKAPAGPSLEETSVSSPKGSSEPCWLIRLCISIVVLPKEDSCSGSDAGSAAGSTYEPSPMRLEALQVLTLLARGYFSMTQAYLMELGEVICKCMGEADPSIQLHGAKLLEELGTGLIQQYKPDSTAAPDQRAPVFLVVMFWTMMLNGPLPRALQNSEHPTLQASACDALSSILPEAFSNLPNDRQMLCITVLLGLNDSKNRLVKAATSRALGVYVLFPCLRQDVIFVADAANAILMSLEDKSLNVRAKAAWSLGNLTDTLIVNMETPDPSFQEEFSGLLLLKMLRSAIEASKDKDKVKSNAVRALGNLLHFLQPSHIEKPTFAEIIEESIQALISTVLTEAAMKVRWNACYAMGNVFKNPALPLGTAPWTSQAYNALTSVVTSCKNFKVRIRSAAALSVPGKREQYGSVDQYARIWNALVTALQKSEDTIDFLEFKYCVSLRTQICQALIHLLSLASASDLPCMKETLELSGNMVQSYILQFLKSGAEGDDTGAPHSPQERDQMVRMALKHMGSIQAPTGDTARRAIMGFLEEILAVCFDSSGSQGALPGLTNQ
modifications: interaction partner of SARS-CoV-2 M
Question: With B2 as the molecule, how does the MIST_MERS read?
Answer: The MIST_MERS was 0.

Question: What about the MIST_SARS1 of the same molecule?
Answer: The MIST_SARS1 was 0.8284.

Question: What about the MIST_SARS2 of the same molecule?
Answer: Its MIST_SARS2 is 0.

Question: What about the Saint_MERS of the same molecule?
Answer: The Saint_MERS was 0.

Question: And the Saint_SARS1?
Answer: The Saint_SARS1 was 0.97.

Question: What about the Saint_SARS2 of the same molecule?
Answer: Its Saint_SARS2 is 0.
